Experimental data published in paper PMC3822574 (Analytical biochemistry, 2013).

Target: T1, LCAT (Homo sapiens, UniProt P04180)
T1 sequence (P04180 25-440): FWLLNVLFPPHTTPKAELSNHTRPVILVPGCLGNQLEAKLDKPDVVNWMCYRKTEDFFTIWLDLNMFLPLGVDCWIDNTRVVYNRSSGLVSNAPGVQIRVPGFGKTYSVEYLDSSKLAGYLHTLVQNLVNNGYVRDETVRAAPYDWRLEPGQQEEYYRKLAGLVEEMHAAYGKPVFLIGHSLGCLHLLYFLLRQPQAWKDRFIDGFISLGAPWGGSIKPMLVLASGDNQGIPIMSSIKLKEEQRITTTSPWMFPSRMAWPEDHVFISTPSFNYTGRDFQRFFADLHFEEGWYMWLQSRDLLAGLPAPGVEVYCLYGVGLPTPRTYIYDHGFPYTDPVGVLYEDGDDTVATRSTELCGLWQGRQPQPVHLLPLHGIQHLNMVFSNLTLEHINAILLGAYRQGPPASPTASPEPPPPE
Assay: Assay of LCAT activity in plasma with HDL-mimetic substrate
Format: biochemical
Conditions: rhLCAT in buffer; 2 μL with 100 μL HMS (100 μM DHE), 2 hours

Slope of activity versus rhLCAT concentration: 5 nmol/µg/h
Substance: rhLCAT: Recombinant human LCAT purified from the medium of a stably transfected HEK293F cell clone
